Results as given in article PMC11813886.
Values belong to the substance of their own block, whether it stands above or below them.

Legend:
[1] = target: FHR-B_(Dup.1-3) (mouse); experiment: AUC; sedimentation velocity, 48000 rpm, protein in PBS pH 7; c(s) distributions with SEDFIT; dimer to monomers
[2] = target: FHR-B_(Del.1) (mouse); experiment: as above
[3] = target: FHR-B_(Y162H) (mouse); experiment: as above
[4] = target: FHR-B1-3::FHR-1_(4-5) hybrid protein (mouse | human); experiment: as above
[5] = target: FHR-1_(1-3)::FHR-B4-5 hybrid protein (human | mouse); experiment: as above
[6] = target: FHR-B_(T161A,I166V) (mouse); experiment: as above
[7] = target: recombinant form of the native mouse FHR-B protein (rFHR-B) (mouse); experiment: AUC; sedimentation velocity after exposure to pH 2.5 or pH 10.5 and dialysis back to physiological conditions
[8] = target: recombinant form of the native mouse FHR-B protein (rFHR-B) (mouse); experiment: AUC; sedimentation velocity, 48000 rpm, protein in PBS pH 7; c(s) distributions with SEDFIT; dimer to monomers

Substance: FHR-B1-3::FHR-1_(4-5) hybrid protein
stoichiometry N [4]: 2

Substance: FHR-1_(1-3)::FHR-B4-5 hybrid protein
stoichiometry N [5]: 2

Substance: recombinant form of the native mouse FHR-B protein (rFHR-B) (natural protein)
stoichiometry N [7]: 2 | stoichiometry N [8]: 2

More lines, now with the values ahead:

stoichiometry N [1]: 2
Substance: FHR-B_(Dup.1-3)

stoichiometry N [2]: 2
Substance: FHR-B_(Del.1) (domain or fragment)

stoichiometry N [3]: 2
Substance: FHR-B_(Y162H) (natural protein)

stoichiometry N [6]: 2
Substance: FHR-B_(T161A,I166V) (natural protein)
